In ChEMBL document CHEMBL3414448, “Advances in the discovery of novel antimicrobials targeting the assembly of bacterial cell division protein FtsZ” (Eur J Med Chem, 2015):

Compound: N=C(N)c1ccc(-c2cc3ccc(C(=N)N)cc3[nH]2)cc1
Assay: Inhibition of Escherichia coli FtsZ assessed as reduction in substrate KM value

B1: Cell division protein FtsZ (Escherichia coli K-12), P0A9A6 (protein)
chain: MFEPMELTNDAVIKVIGVGGGGGNAVEHMVRERIEGVEFFAVNTDAQALRKTAVGQTIQIGSGITKGLGAGANPEVGRNAADEDRDALRAALEGADMVFIAAGMGGGTGTGAAPVVAEVAKDLGILTVAVVTKPFNFEGKKRMAFAEQGITELSKHVDSLITIPNDKLLKVLGRGISLLDAFGAANDVLKGAVQGIAELITRPGLMNVDFADVRTVMSEMGYAMMGSGVASGEDRAEEAAEMAISSPLLEDIDLSGARGVLVNITAGFDLRLDEFETVGNTIRAFASDNATVVIGTSLDPDMNDELRVTVVATGIGMDKRPEITLVTNKQVQQPVMDRYQQHGMAPLTQEQKPVAKVVNDNAPQTAKEPDYLDIPAFLRKQAD
- Km: 29.4 µM
